# Patent US20160250307A1
# Biological target: HLA-A*02 (human)
# Assay: UV-ligand exchange, anti-b2m ELISA; grade: exchange yield >=50%
binder,measurement,value
SLTSEIHFL […],peptide exchange yield,50 to 75%
